In test [1] the target is T1, soluble amyloid precursor protein-alpha (sAPPα) (UniProt P05067-4 18-612, limits assumed).
T1 construct: Bought protein; also called sAPPα (Sigma)
The test can be described thus: dot blot on nitrocellulose, densitometry. Here is the method:
(§1) For detection, the corresponding antibody was used (0.2 μg/mL). Immunostaining was done using peroxidase conjugated anti-mouse-IgG and the staining reagent BM Blue POD Substrate (Roche).
1) 1 μL each of the different Aβ-standards (in their 5 serial dilutions) were dotted onto the nitrocellulose membrane in a distance of approximately 1 cm from each other. [0267] 2) The Aβ-standards dots were allowed to dry on the nitrocellulose membrane on air for at least 10 min at room temperature (RT) (=dot blot). [0268] 3) Blocking: [0269] The dot blot was incubated with 30 mL 5% low fat milk in TBS for 1.5 h at RT. [0270] 4) Washing: [0271] The blocking solution was discarded and the dot blot incubated under shaking with 20 mL TTBS for 10 min at RT. [0272] 5) Antibody solution I: [0273] The washing buffer was discarded and the dot blot incubated with antibody solution I for 2 h at RT. [0274] 6) Washing: [0275] The antibody solution I was discarded and the dot blot incubated under shaking with 20 mL TTBS for 10 min at RT. The washing solution was discarded and the dot blot incubated under shaking with 20 mL TTBS for 10 min at RT. […] Quantitative evaluation was done using a densitometric analysis (GS800 densitometer (BioRad) and software package Quantity one, Version 4.5.0 (BioRad)) of the dot-intensity. […] This threshold value was determined for every dot-blot independently.

For test [2], the target named is T2, Aβ(1-42) peptide in the CSF of an Alzheimer's disease patient (human).
T2 construct: Endogenous peptide immunoprecipitated from patient CSF; also called Aβ(1-42) peptide present in cerebrospinal fluid (CSF)
The test can be described thus: immunoprecipitation from CSF with antibody-coated Dynabeads, urea-PAGE and Western blot. Here is the method: Activation of Dynabeads with monoclonal mouse antibodies [0497] the stock-suspension of dynabeads (Dynabeads M-280 Sheep anti-Mouse IgG, Invitrogen; Prod. No. 112.02) was shaken carefully to prevent foaming [0498] 1 mL was aseptically removed and transferred to a 1.5 mL reaction vial [0499] the dynabeads were washed 3 times 5 min with 1 mL immunoprecipitation (IP)-wash buffer (IP-wash-buffer: PBS (20 mM NaH₂PO₄, 140 mM NaCl, pH 7.4), 0.1% (w/v) BSA) During the washing procedure the supernatant was carefully removed while the dynabeads were immobilized at the side of the reaction vial with a magnetic separator stand (MSS) [0500] the washed dynabeads were incubated with 40 μg Aβ-antibody in 1 mL PBS, 0.1% (w/v) BSA [0501] the activation was carried out by overnight incubation under shaking at 4° C. [0502] the activated dynabeads were washed 4 times 30 min (again using the MSS) with 1 mL IP-wash buffer (PBS (20 mM NaH₂PO₄, 140 mM NaCl, pH 7.4), 0.1% (w/v) BSA) [0503] the activated dynabeads were resuspended with 1 mL PBS, 0.1% (w/v) BSA, 0.02% (w/v) Na-Azide; vortexed and centrifuged briefly [0504] the antibody activated dynabeads were stored at 4° C. until further use
250 μL aliquot of the prepared CSF sample were added to 25 μL anti-Aβ-Dynabeads suspension [0507] Immunoprecipitation occurred under stirring at 6° C. for 16 hours. […]

In another test the target is T3, Aβ(1-42) globulomer (human).
T3 construct: also called 38/48-kDa Aβ(1-42) globulomer; Aβ(1-42) globular oligomer
In words: dot blot, antibody 0.2 µg/mL. Here is the method: as §1
(§2) 1) 1 μL each of the different Aβ-standards (in their 5 serial dilutions) were dotted onto the nitrocellulose membrane in a distance of approximately 1 cm from each other. [0267] 2) The Aβ-standards dots were allowed to dry on the nitrocellulose membrane on air for at least 10 min at room temperature (RT) (=dot blot). [0268] 3) Blocking: [0269] The dot blot was incubated with 30 mL 5% low fat milk in TBS for 1.5 h at RT. [0270] 4) Washing: [0271] The blocking solution was discarded and the dot blot incubated under shaking with 20 mL TTBS for 10 min at RT. [0272] 5) Antibody solution I: [0273] The washing buffer was discarded and the dot blot incubated with antibody solution I for 2 h at RT. [0274] 6) Washing: [0275] The antibody solution I was discarded and the dot blot incubated under shaking with 20 mL TTBS for 10 min at RT. The washing solution was discarded and the dot blot incubated under shaking with 20 mL TTBS for 10 min at RT. The washing solution was discarded and the dot blot incubated under shaking with 20 mL TBS for 10 min at RT. [0276] 7) Antibody solution II: [0277] The washing buffer was discarded and the dot blot incubated with antibody solution II overnight at RT. [0278] 8) Washing: [0279] The antibody solution II was discarded and the dot blot incubated under shaking with 20 mL TTBS for 10 min at RT. The washing solution was discarded and the dot blot incubated under shaking with 20 mL TTBS for 10 min at RT. The washing solution was discarded and the dot blot incubated under shaking with 20 mL TBS for 10 min at RT. [0280] 9) Development: [0281] The washing solution was discarded. The dot blot was developed with 10 mL BM Blue POD Substrate for 10 min. The development was stopped by intense washing of the dot blot with H₂O. Quantitative evaluation was done using a densitometric analysis (GS800 densitometer (BioRad) and software package Quantity one, Version 4.5.0 (BioRad)) of the dot-intensity. […] This threshold value was determined for every dot-blot independently.

Another test deals with T4, Aβ(1-40) monomer (human).
T4 construct: Synthetic peptide (Bachem) freshly dissolved in 0.1% NH4OH or 0.1% NaOH; both preparations were dotted; also called Aβ(1-40) monomer, 0.1% NH4OH; Aβ(1-40) monomer, 0.1% NaOH
In words: dot blot, antibody 0.2 µg/mL. Here is the method:
as §1, §2

In a further test the target is T5, Aβ(12-42) globulomer (human).
T5 peptide: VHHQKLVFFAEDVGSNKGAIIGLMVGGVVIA
In words: dot blot, antibody 0.2 µg/mL. Here is the method:
as §1, §2

For a further test, the target named is T6, Aβ(20-42) globulomer (human).
T6 peptide: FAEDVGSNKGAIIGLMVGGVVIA
In words: dot blot, antibody 0.2 µg/mL. Here is the method: as §1, §2

The target in a further test is T7, Aβ(1-42) monomer (human).
T7 construct: Synthetic peptide (Bachem H-1368) freshly dissolved in 0.1% NH4OH or 0.1% NaOH; both preparations were dotted; also called Aβ(1-42) monomer, 0.1% NH4OH; Aβ(1-42) monomer, 0.1% NaOH
The test can be described thus: dot blot, antibody 0.2 µg/mL. Here is the method: as §1, §2

T4 sequence (peptide, as listed by the source): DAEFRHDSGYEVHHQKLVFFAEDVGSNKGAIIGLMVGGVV
T1 sequence (P05067 other isoform, or with tags, fused parts or gaps limits assumed): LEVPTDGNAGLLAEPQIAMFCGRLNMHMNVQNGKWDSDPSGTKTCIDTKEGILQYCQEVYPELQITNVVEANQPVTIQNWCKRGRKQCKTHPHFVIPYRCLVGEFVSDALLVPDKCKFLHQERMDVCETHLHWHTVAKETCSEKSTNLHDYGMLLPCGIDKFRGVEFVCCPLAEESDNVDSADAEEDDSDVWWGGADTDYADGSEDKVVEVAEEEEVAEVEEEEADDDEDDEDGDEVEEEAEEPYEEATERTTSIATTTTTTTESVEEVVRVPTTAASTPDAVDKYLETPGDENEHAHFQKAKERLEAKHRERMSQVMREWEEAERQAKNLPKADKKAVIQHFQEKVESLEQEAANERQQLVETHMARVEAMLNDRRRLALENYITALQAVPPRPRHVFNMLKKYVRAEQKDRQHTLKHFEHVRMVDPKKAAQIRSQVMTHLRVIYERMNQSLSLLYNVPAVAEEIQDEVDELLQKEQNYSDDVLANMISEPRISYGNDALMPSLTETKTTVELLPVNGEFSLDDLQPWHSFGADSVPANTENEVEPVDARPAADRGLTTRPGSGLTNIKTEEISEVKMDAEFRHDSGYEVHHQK

B1: monoclonal antibody 10F4 (antibody, V domains shown)
VH: QVQLQQSGAELVRPGTSVRVSCKASGYAFTNYLIEWVKQRPGQGLEWIGVINPGSGDTNYNENFKGKATLTADKSSSTAYMHLSSLTSDDSAVYFCTRGVITTGFDYWGQGTTLTISS
VL: DIQMTQSPASLSASVGETVTITCRASGNIHNYLAWYQQKQGKSPQLLVYNAKTLADGVPSRFSGSGSGTQYSLKINSLQPEDFGSYYCQHFWSSPRTFGGGTKLEIKR
notes: Murine monoclonal antibody from a hybridoma (Balb/c mice immunized with Aβ(12-42) globulomer); also called mAb 10F4; ML43-10F4.3H8
Turning to B1, the binding result in test [1] was “no binding (tested: antibody 0.2 µg/mL; first dot: 1 pmol)”; in test [2] it was “binds”; in the test with Aβ(1-42) globulomer, “binds”; with Aβ(1-40) monomer, “binds”; with Aβ(12-42) globulomer, “binds”; with Aβ(20-42) globulomer, “binds”. Also, the binding result with Aβ(1-42) monomer is “binds”.

B2: monoclonal antibody 3C5 (antibody, V domains shown)
VH: DVQLQESGPGLVKPSQSLSLTCTVAGSSITSHYAWNWIRQFPGNKLEWMGYIDYSGSTRYLPSLKSRISITRDTSKNQFFLQLNSVTTEDTATYYCARGSGYFYGMDYWGQGTSVTVSS
VL: DIQMNQSPSSLSPSLGDTITITCHASQNINVWLSWYQQKPGNIPKLLIYKASNLHTGVPSRFSGSGSGIGFTLTIRSLQPEDIATYFCQQGQSYPYTFGGGTKLEIKR
notes: Murine monoclonal antibody from a hybridoma (Balb/c mice immunized with Aβ(12-42) globulomer); also called mAb 3C5; ML45-3C5.5
As to B2, the binding result in test [1] is “no binding (tested: antibody 0.2 µg/mL; first dot: 1 pmol)”; in test [2] it was “binds”; in the test with Aβ(1-42) globulomer, “binds”; in the test with Aβ(1-40) monomer, “binds”; with Aβ(12-42) globulomer, “binds”; with Aβ(20-42) globulomer, “binds”. For the same molecule, the binding result in the test with Aβ(1-42) monomer is on record as “binds”.

These data come from US20090035307A1 (AbbVie / Abbott, published 2009).
